The chains are these.
B1: Prolactin, P01236 (parent)
chain: MNIKGSPWKGSLLLLLVSNLLLCQSVAPLPICPGGAARCQVTLRDLFDRAVVLSHYIHNLSSEMFSEFDKRYTHGRGFITKAINSCHTSSLATPEDKEQAQQMNQKDFLSLIVSILRSWNEPLYHLVTEVRGMQEAPEAILSKAVEIEEQTKRLLEGMELIVSQVHPETKENEIYPVWSGLPSLQMADEESRLSAYYNLLHCLRRDSHKIDNYLKLLKCRIIHNNNC

The variants in the series derive from B1. The following applies: Homo sapiens, 25 °C, Urea, Fluorescence, Potassium phosphate 25 mM, NaCl 25 mM, reversible: Yes, structure 2Q98, whole UniProt chain shown.

For H87A, where the note is “pH 5.8”, the “ddG of mutation (higher = less stable)” value is -2.26 kcal/mol, the denaturant m value stood at 1.13 kcal/mol/M, the “denaturant midpoint (higher = more stable)” value (from here on “denaturant midpoint”) worked out at 5.81 M and the unfolding free energy was 6.56 kcal/mol. For the setting “pH 7.8”, the “ddG of mutation (higher = less stable)” value was found to be 0.02 kcal/mol, the denaturant m value amounted to 1.35 kcal/mol/M, the “denaturant midpoint” value amounted to 6.08 M and the unfolding free energy worked out at 8.18 kcal/mol.
As to H125A, under “pH 5.8”, the “ddG of mutation (higher = less stable)” value is -1.07 kcal/mol, the denaturant m value worked out at 0.94 kcal/mol/M, the “denaturant midpoint” value turned out to be 5.72 M and the unfolding free energy came out at 5.37 kcal/mol. Moreover, where the note is “pH 7.8”, the “ddG of mutation (higher = less stable)” value was -0.33 kcal/mol, the denaturant m value was 1.4 kcal/mol/M, the “denaturant midpoint” value worked out at 6.1 M and the unfolding free energy came out at 8.53 kcal/mol.
As to H55A H58A, under “pH 7.8”, the “ddG of mutation (higher = less stable)” value was -1.42 kcal/mol, the denaturant m value is 1.39 kcal/mol/M, the “denaturant midpoint” value was 6.94 M and the unfolding free energy is 9.62 kcal/mol.
As for H55A H58A H208A, under “pH 5.8”, the “ddG of mutation (higher = less stable)” value was -3.41 kcal/mol, the denaturant m value was 1.16 kcal/mol/M, the “denaturant midpoint” value was found to be 6.67 M and the unfolding free energy was 7.71 kcal/mol. Moreover, for the setting “pH 7.8”, the “ddG of mutation (higher = less stable)” value is -3.11 kcal/mol, the denaturant m value worked out at 1.59 kcal/mol/M, the “denaturant midpoint” value was 7.1 M and the unfolding free energy came out at 11.3 kcal/mol.
In the case of H166A, for the setting “pH 5.8”, the “ddG of mutation (higher = less stable)” value was -2.04 kcal/mol, the denaturant m value came to 1.08 kcal/mol/M, the “denaturant midpoint” value came to 5.87 M and the unfolding free energy came out at 6.34 kcal/mol. In addition, where the note is “pH 7.8”, the “ddG of mutation (higher = less stable)” value is -0.58 kcal/mol, the denaturant m value was found to be 1.38 kcal/mol/M, the “denaturant midpoint” value was found to be 6.38 M and the unfolding free energy stood at 8.78 kcal/mol.
As to H58A, where the note is “pH 5.8”, the “ddG of mutation (higher = less stable)” value is -3.1 kcal/mol, the denaturant m value came out at 1.2 kcal/mol/M, the “denaturant midpoint” value came out at 6.18 M and the unfolding free energy was 7.4 kcal/mol. Besides, under “pH 7.8”, the “ddG of mutation (higher = less stable)” value was -2.05 kcal/mol, the denaturant m value was found to be 1.51 kcal/mol/M, the “denaturant midpoint” value is 6.79 M and the unfolding free energy was determined as 10.2 kcal/mol.
As for H223A, where the note is “pH 5.8”, the “ddG of mutation (higher = less stable)” value stood at 0.03 kcal/mol, the denaturant m value was found to be 0.81 kcal/mol/M, the “denaturant midpoint” value came to 5.29 M and the unfolding free energy amounted to 4.27 kcal/mol. Also, where the note is “pH 7.8”, the “ddG of mutation (higher = less stable)” value is -0.12 kcal/mol, the denaturant m value turned out to be 1.42 kcal/mol/M, the “denaturant midpoint” value came out at 5.85 M and the unfolding free energy came to 8.32 kcal/mol.
Turning to H55A, for the setting “pH 5.8”, the “ddG of mutation (higher = less stable)” value is -0.09 kcal/mol, the denaturant m value was found to be 0.77 kcal/mol/M, the “denaturant midpoint” value was determined as 5.71 M and the unfolding free energy is 4.39 kcal/mol.
For H74A, under “pH 5.8”, the “ddG of mutation (higher = less stable)” value worked out at 0.11 kcal/mol, the denaturant m value came to 0.81 kcal/mol/M, the “denaturant midpoint” value stood at 5.14 M and the unfolding free energy came to 4.19 kcal/mol. Besides, where the note is “pH 7.8”, the “ddG of mutation (higher = less stable)” value was -1.55 kcal/mol, the denaturant m value was determined as 1.58 kcal/mol/M, the “denaturant midpoint” value was determined as 6.19 M and the unfolding free energy came out at 9.75 kcal/mol.
For the variant H55A H208A, under “pH 5.8”, the “ddG of mutation (higher = less stable)” value is -2.06 kcal/mol, the denaturant m value was 1.05 kcal/mol/M, the “denaturant midpoint” value came out at 6.08 M and the unfolding free energy was determined as 6.36 kcal/mol. Under “pH 7.8”, the “ddG of mutation (higher = less stable)” value is -2.57 kcal/mol, the denaturant m value worked out at 1.62 kcal/mol/M, the “denaturant midpoint” value was 6.64 M and the unfolding free energy stood at 10.8 kcal/mol.
As to H201A, under “pH 5.8”, the “ddG of mutation (higher = less stable)” value was -0.24 kcal/mol, the denaturant m value amounted to 0.76 kcal/mol/M, the “denaturant midpoint” value was determined as 5.98 M and the unfolding free energy was determined as 4.54 kcal/mol. Under “pH 7.8”, the “ddG of mutation (higher = less stable)” value was 0.35 kcal/mol, the denaturant m value came to 1.26 kcal/mol/M, the “denaturant midpoint” value came to 6.22 M and the unfolding free energy amounted to 7.85 kcal/mol.
H58A H201A: under “pH 5.8”, the “ddG of mutation (higher = less stable)” value was -3.7 kcal/mol, the denaturant m value amounted to 1.19 kcal/mol/M, the “denaturant midpoint” value was 6.7 M and the unfolding free energy worked out at 8 kcal/mol. In addition, where the note is “pH 7.8”, the “ddG of mutation (higher = less stable)” value was -1.53 kcal/mol, the denaturant m value stood at 1.49 kcal/mol/M, the “denaturant midpoint” value stood at 6.53 M and the unfolding free energy was determined as 9.73 kcal/mol.
H58A H201A H208A: for the setting “pH 5.8”, the “ddG of mutation (higher = less stable)” value is -3.98 kcal/mol, the denaturant m value was 1.22 kcal/mol/M, the “denaturant midpoint” value was determined as 6.81 M and the unfolding free energy is 8.28 kcal/mol. In addition, for the setting “pH 7.8”, the “ddG of mutation (higher = less stable)” value is -0.87 kcal/mol, the denaturant m value came to 1.31 kcal/mol/M, the “denaturant midpoint” value stood at 6.94 M and the unfolding free energy turned out to be 9.07 kcal/mol.
With H208A, where the note is “pH 5.8”, the “ddG of mutation (higher = less stable)” value was -1.39 kcal/mol, the denaturant m value was 0.96 kcal/mol/M, the “denaturant midpoint” value worked out at 5.94 M and the unfolding free energy is 5.69 kcal/mol. Also, where the note is “pH 7.8”, the “ddG of mutation (higher = less stable)” value is 0.04 kcal/mol, the denaturant m value was determined as 1.28 kcal/mol/M, the “denaturant midpoint” value was 6.36 M and the unfolding free energy is 8.16 kcal/mol.
With H58A H208A, where the note is “pH 5.8”, the “ddG of mutation (higher = less stable)” value is -3.06 kcal/mol, the denaturant m value worked out at 1.17 kcal/mol/M, the “denaturant midpoint” value was determined as 6.31 M and the unfolding free energy turned out to be 7.36 kcal/mol.
As for H201A H208A, where the note is “pH 5.8”, the “ddG of mutation (higher = less stable)” value is -1.71 kcal/mol, the denaturant m value was 0.93 kcal/mol/M, the “denaturant midpoint” value worked out at 6.49 M and the unfolding free energy was determined as 6.01 kcal/mol. In addition, where the note is “pH 7.8”, the “ddG of mutation (higher = less stable)” value is 0.41 kcal/mol, the denaturant m value was found to be 1.17 kcal/mol/M, the “denaturant midpoint” value is 6.66 M and the unfolding free energy turned out to be 7.79 kcal/mol.

For the origin of these results see FireProtDB (doi:10.1002/pro.100).
